Data on one molecule can be found in US20210292413A1.

In assay [1] the target is T1, human Siglec-3 on cells (moDC, PBMC of CHB patients) (human), P20138. Briefly: co-IP (IP: Siglec-3) from moDC, HBV +, 10C8 -; Western blot, densitometry, normalized to the untreated control [E]. The settings on record: remark: other sources report otherwise. (In western blotting, separated proteins are transferred to a membrane and probed.)
The target of assay [2] is T1, human Siglec-3 on cells (moDC, PBMC of …). As to the kind of experiment: co-IP (IP: Siglec-3) from moDC incubated 30 mins with 10^8 copies/mL hHBV; Western blot, densitometry, normalized to the first lane [F]. The settings on record: remark: other sources report otherwise.
Assay [3] has the same target. As to the kind of experiment: co-IP (IP: Siglec-3) from moDC incubated with hHBV for 0 min; Western blot, densitometry, normalized to the starting point [E].
Assay [4] shares this target. As to the kind of experiment: co-IP (IP: Siglec-3) from moDC, HBV -, 10C8 +; Western blot, densitometry, normalized to the untreated control [E]. To be noted: remark: other sources report otherwise.
The target is the same in assay [5]. Briefly: co-IP (IP: Siglec-3) from moDC treated with HBV (hHBV); Western blot, densitometry, fold of Mock [A]. To be noted: remark: other sources report otherwise.
Assay [6] shares this target. As to the kind of experiment: co-IP (IP: Siglec-3) from moDC, lane Mock; Western blot, densitometry [A]. To be noted: remark: other sources report otherwise.
The target is the same in assay [7]. As to the kind of experiment: co-IP (IP: Siglec-3) from moDC incubated 30 mins with 0 copies/mL hHBV; Western blot, densitometry, normalized to the first lane [F]. To be noted: remark: other sources report otherwise.
Assay [8] shares this target. Briefly: co-IP (IP: Siglec-3) from moDC incubated with hHBV for 60 min; Western blot, densitometry, normalized to the starting point [E].
For assay [9] the target is unchanged. As to the kind of experiment: co-IP (IP: Siglec-3) from moDC incubated with hHBV for 15 min; Western blot, densitometry, normalized to the starting point [E].
For assay [10] the target is unchanged. Briefly: co-IP (IP: Siglec-3) from moDC treated with anti-Siglec-3 mAb 10C8; Western blot, densitometry, fold of Mock [A]. The settings on record: remark: other sources report otherwise.
Assay [11] has the same target. As to the kind of experiment: co-IP (IP: Siglec-3) from moDC, HBV -, 10C8 -; Western blot, densitometry, normalized to the untreated control [E]. The settings on record: remark: other sources report otherwise.
Assay [12] shares this target. Briefly: co-IP (IP: Siglec-3) from moDC incubated 30 mins with 10^9 copies/mL hHBV; Western blot, densitometry, normalized to the first lane [F]. To be noted: remark: other sources report otherwise.
Assay [13] shares this target. Briefly: co-IP (IP: Siglec-3) from moDC, HBV +, 10C8 + (10C8 given 1 hour before HBV); Western blot, densitometry, normalized to the untreated control [E]. To be noted: remark: other sources report otherwise.
For assay [14] the target is unchanged. Briefly: co-IP (IP: Siglec-3) from moDC incubated 30 mins with 3x10^8 copies/mL hHBV; Western blot, densitometry, normalized to the first lane [F]. To be noted: remark: other sources report otherwise.
The target is the same in assay [15]. Briefly: co-IP (IP: Siglec-3) from moDC treated with anti-Siglec-3 mAb 2B9; Western blot, densitometry, fold of Mock [A]. The settings on record: remark: other sources report otherwise.
The target is the same in assay [16]. Briefly: co-IP (IP: Siglec-3) from moDC incubated with hHBV for 30 min; Western blot, densitometry, normalized to the starting point [E].

T1 sequence (P20138 18-364): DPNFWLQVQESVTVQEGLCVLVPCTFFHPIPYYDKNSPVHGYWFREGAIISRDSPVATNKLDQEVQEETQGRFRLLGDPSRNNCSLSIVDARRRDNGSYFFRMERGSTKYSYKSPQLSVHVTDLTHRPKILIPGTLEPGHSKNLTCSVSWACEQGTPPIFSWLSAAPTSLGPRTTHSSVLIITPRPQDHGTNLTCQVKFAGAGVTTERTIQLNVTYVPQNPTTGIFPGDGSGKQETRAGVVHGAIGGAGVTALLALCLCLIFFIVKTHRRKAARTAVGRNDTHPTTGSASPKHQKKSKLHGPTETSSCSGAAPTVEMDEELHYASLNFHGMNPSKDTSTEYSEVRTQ

B1: SHP-2, Q06124 2-593 (protein, human, UniProt Q06124 2-593, looked up)
chain: TSRRWFHPNITGVEAENLLLTRGVDGSFLARPSKSNPGDFTLSVRRNGAVTHIKIQNTGDYYDLYGGEKFATLAELVQYYMEHHGQLKEKNGDVIELKYPLNCADPTSERWFHGHLSGKEAEKLLTEKGKHGSFLVRESQSHPGDFVLSVRTGDDKGESNDGKSKVTHVMIRCQELKYDVGGGERFDSLTDLVEHYKKNPMVETLGTVLQLKQPLNTTRINAAEIESRVRELSKLAETTDKVKQGFWEEFETLQQQECKLLYSRKEGQRQENKNKNRYKNILPFDHTRVVLHDGDPNEPVSDYINANIIMPEFETKCNNSKPKKSYIATQGCLQNTVNDFWRMVFQENSRVIVMTTKEVERGKSKCVKYWPDEYALKEYGVMRVRNVKESAAHDYTLRELKLSKVGQGNTERTVWQYHFRTWPDHGVPSDPGGVLDFLEEVHHKQESIMDAGPVVVHCSAGIGRTGTFIVIDILIDIIREKGVDCDIDVPKTIQMVRSQRSGMVQTEAQYRFIYMAVQHYIETLQRRIEEEQKSKRKGHEYTNIKYSLADQTSGDQSPLPPCTPTPPCAEMREDSARVYENVGLMQQQKSFR
Consider B1, for which the fold change of SHP-2 co-precipitated with Siglec-3 in assay [1] came out at 2.7 fold; in assay [2], 1.1 fold; in assay [3] it was 1 fold; in [4], 1.2 fold; in assay [5] it was 1.2 fold; in assay [6], 1 fold. The fold change of SHP-2 co-precipitated with Siglec-3 in assay [7] came to 1 fold; in assay [8], 1.3 fold; in assay [9], 1.5 fold; in assay [10] it was 1.3 fold; in assay [11], 1 fold; in assay [12] it was 1.6 fold. The fold change of SHP-2 co-precipitated with Siglec-3 came to 1.6 fold in assay [13], 1.2 fold in assay [14], 4.3 fold in assay [15] and 2.4 fold in [16].
